# Laboratory results reported in the supplement of paper PMC9112550, “Optimization of the antimicrobial peptide Bac7 by deep mutational scanning” (BMC Biology, 2022).
# Tested on: Escherichia coli TOP10
# Test: shrunken log2 fold change of peptide-encoding DNA abundance (4.5 h post-induction vs induction); higher = less antimicrobial activity (less host growth inhibition)
# Settings: time post-induction: 4.5 h; library: site-saturation at positions 5, 18, 19, 20
# 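Also: peptides expressed intracellularly from a pBAD plasmid library in pooled LB shake-flask culture, induced with 0.3% L-arabinose, DNA abundance read by NGS, three biological replicates, DESeq2 with apeglm shrinkage.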
row,Sequence,shrunken log2 fold change
1,RRIRTRPPRLPRPRPRPLLPPRP,0.112
2,RRIRIRPPRLPRPRPRPQQYPRP,-0.808
3,RRIRRRPPRLPRPRPRPIIRPRP,0.0674
4,RRIRDRPPRLPRPRPRPLYMPRP,0.383
5,RRIRLRPPRLPRPRPRPCYKPRP,-0.133
6,RRIRIRPPRLPRPRPRPLQDPRP,-0.31
7,RRIRARPPRLPRPRPRPPYRPRP,-0.0935
8,RRIRIRPPRLPRPRPRPVCSPRP,-0.174
9,RRIRDRPPRLPRPRPRPKHKPRP,-0.173
10,RRIRTRPPRLPRPRPRPSIWPRP,0.112
11,RRIRQRPPRLPRPRPRPWAMPRP,-0.0161
12,RRIRHRPPRLPRPRPRPSASPRP,-0.0379
13,RRIRWRPPRLPRPRPRPRTIPRP,-0.0129
14,RRIRMRPPRLPRPRPRPRVVPRP,0.246
15,RRIRQRPPRLPRPRPRPSEWPRP,-0.0519
16,RRIRHRPPRLPRPRPRPTYIPRP,-0.573
17,RRIRRRPPRLPRPRPRPEQTPRP,-0.01
18,RRIRVRPPRLPRPRPRPYQPPRP,-0.509
19,RRIRMRPPRLPRPRPRPFHKPRP,0.0887
20,RRIRLRPPRLPRPRPRPGYLPRP,-0.282
21,RRIRNRPPRLPRPRPRPSMCPRP,-0.0503
22,RRIRHRPPRLPRPRPRPYSAPRP,0.0254

row,Sequence,shrunken log2 fold change
1,RRIRWRPPRLPRPRPRPSVWPRP,0.218
2,RRIRWRPPRLPRPRPRPQTIPRP,0.106
3,RRIRMRPPRLPRPRPRPEDYPRP,1.06
4,RRIRIRPPRLPRPRPRPTGHPRP,-0.116
5,RRIRERPPRLPRPRPRPNSFPRP,-0.249
6,RRIRARPPRLPRPRPRPQDCPRP,0.0638
7,RRIRPRPPRLPRPRPRPLRHPRP,0.21
8,RRIRSRPPRLPRPRPRPFQFPRP,-0.157
9,RRIRKRPPRLPRPRPRPWDRPRP,0.394
10,RRIRIRPPRLPRPRPRPPMQPRP,-0.193
11,RRIRKRPPRLPRPRPRPCKQPRP,0.0173
12,RRIRFRPPRLPRPRPRPDPTPRP,0.0215
13,RRIRGRPPRLPRPRPRPFNNPRP,-0.206
14,RRIRARPPRLPRPRPRPGMYPRP,-0.111
15,RRIRLRPPRLPRPRPRPDVWPRP,0.127
16,RRIRWRPPRLPRPRPRPRASPRP,0.852
17,RRIRERPPRLPRPRPRPSILPRP,-0.623
18,RRIRKRPPRLPRPRPRPMDQPRP,0.0935
19,RRIRSRPPRLPRPRPRPWYEPRP,-0.0183
20,RRIRVRPPRLPRPRPRPISFPRP,0.0233
21,RRIRARPPRLPRPRPRPITKPRP,-0.0507
22,RRIRMRPPRLPRPRPRPSNEPRP,0.287

row,Sequence,shrunken log2 fold change
1,RRIRWRPPRLPRPRPRPVFVPRP,-0.0738
2,RRIRYRPPRLPRPRPRPLWMPRP,-0.63
3,RRIRVRPPRLPRPRPRPNNSPRP,-0.309
4,RRIRMRPPRLPRPRPRPSYPPRP,-0.412
5,RRIRARPPRLPRPRPRPCHFPRP,-0.0257
6,RRIRLRPPRLPRPRPRPVTDPRP,-0.325
7,RRIRTRPPRLPRPRPRPGHAPRP,0.161
8,RRIRPRPPRLPRPRPRPRHEPRP,0.0886
9,RRIRMRPPRLPRPRPRPKHHPRP,0.148
10,RRIRGRPPRLPRPRPRPAQVPRP,0.274
11,RRIRGRPPRLPRPRPRPVRQPRP,0.883
12,RRIRTRPPRLPRPRPRPYKVPRP,-1.32
13,RRIRQRPPRLPRPRPRPRNAPRP,0.483
14,RRIRRRPPRLPRPRPRPAPKPRP,0.905
15,RRIRERPPRLPRPRPRPGNCPRP,0.13
16,RRIRIRPPRLPRPRPRPGMNPRP,-0.0956
17,RRIRARPPRLPRPRPRPHIKPRP,-0.388
18,RRIRCRPPRLPRPRPRPMQEPRP,-0.0194
19,RRIRTRPPRLPRPRPRPANAPRP,-0.0933
20,RRIRMRPPRLPRPRPRPPRPPRP,1.75
21,RRIRVRPPRLPRPRPRPNRPPRP,-0.262
22,RRIRCRPPRLPRPRPRPFRHPRP,-0.143

row,Sequence,shrunken log2 fold change
1,RRIRERPPRLPRPRPRPTCTPRP,0.199
2,RRIRDRPPRLPRPRPRPILLPRP,-0.28
3,RRIRMRPPRLPRPRPRPIYPPRP,-0.125
4,RRIRQRPPRLPRPRPRPPSTPRP,0.179
5,RRIRFRPPRLPRPRPRPWKDPRP,-0.192
6,RRIRVRPPRLPRPRPRPYDCPRP,-0.9
7,RRIRIRPPRLPRPRPRPSQPPRP,0.101
8,RRIRERPPRLPRPRPRPALIPRP,0.129
9,RRIRSRPPRLPRPRPRPSNFPRP,-0.379
10,RRIRSRPPRLPRPRPRPAVVPRP,-0.0261
11,RRIRARPPRLPRPRPRPWDVPRP,0.246
12,RRIRPRPPRLPRPRPRPQSRPRP,0.161
13,RRIRGRPPRLPRPRPRPEQSPRP,1.05
14,RRIRPRPPRLPRPRPRPICDPRP,-0.0726
15,RRIRTRPPRLPRPRPRPWRIPRP,0.025
16,RRIRPRPPRLPRPRPRPGHTPRP,0.179
17,RRIRIRPPRLPRPRPRPQWHPRP,-0.381
18,RRIRMRPPRLPRPRPRPQWWPRP,0.245
19,RRIRCRPPRLPRPRPRPSACPRP,-0.0897
20,RRIRTRPPRLPRPRPRPTATPRP,0.286
21,RRIRFRPPRLPRPRPRPSHCPRP,-0.28
22,RRIRTRPPRLPRPRPRPKNHPRP,-0.712

row,Sequence,shrunken log2 fold change
1,RRIRMRPPRLPRPRPRPLEHPRP,0.0245
2,RRIRCRPPRLPRPRPRPLLSPRP,-0.306
3,RRIRNRPPRLPRPRPRPMPKPRP,-0.0238
4,RRIRGRPPRLPRPRPRPAKGPRP,0.0624
5,RRIRKRPPRLPRPRPRPWPPPRP,0.56
6,RRIRMRPPRLPRPRPRPMAPPRP,0.218
7,RRIRFRPPRLPRPRPRPDDFPRP,0.0834
8,RRIRMRPPRLPRPRPRPEDQPRP,0.0267
9,RRIRGRPPRLPRPRPRPEADPRP,1
10,RRIRDRPPRLPRPRPRPHTEPRP,-0.0337
11,RRIRLRPPRLPRPRPRPYLYPRP,-0.164
12,RRIRTRPPRLPRPRPRPKFVPRP,0.368
13,RRIRARPPRLPRPRPRPKWRPRP,0.176
14,RRIRSRPPRLPRPRPRPRMGPRP,0.234
15,RRIRWRPPRLPRPRPRPKCGPRP,0.594
16,RRIRNRPPRLPRPRPRPDLYPRP,-0.0459
17,RRIRERPPRLPRPRPRPKHFPRP,-0.248
18,RRIRGRPPRLPRPRPRPESQPRP,1.57
19,RRIRNRPPRLPRPRPRPMFIPRP,-0.383
20,RRIRFRPPRLPRPRPRPCNVPRP,-0.01
21,RRIRVRPPRLPRPRPRPQIGPRP,-0.273
